Our source for the IC50 of current block, whole-cell patch-clamp values is US20160264634A1.

For assay [1], the target named is mKv1.3 channel (mouse) (UniProt P16390). Kind of assay: cell-based or functional assay.
The target of assay [2] is mKv1.1 channel (mouse) (UniProt P16388). The assay can be described thus: cell-based or functional assay.
Chain of mKv1.1 channel (mouse) (P16388 whole entry): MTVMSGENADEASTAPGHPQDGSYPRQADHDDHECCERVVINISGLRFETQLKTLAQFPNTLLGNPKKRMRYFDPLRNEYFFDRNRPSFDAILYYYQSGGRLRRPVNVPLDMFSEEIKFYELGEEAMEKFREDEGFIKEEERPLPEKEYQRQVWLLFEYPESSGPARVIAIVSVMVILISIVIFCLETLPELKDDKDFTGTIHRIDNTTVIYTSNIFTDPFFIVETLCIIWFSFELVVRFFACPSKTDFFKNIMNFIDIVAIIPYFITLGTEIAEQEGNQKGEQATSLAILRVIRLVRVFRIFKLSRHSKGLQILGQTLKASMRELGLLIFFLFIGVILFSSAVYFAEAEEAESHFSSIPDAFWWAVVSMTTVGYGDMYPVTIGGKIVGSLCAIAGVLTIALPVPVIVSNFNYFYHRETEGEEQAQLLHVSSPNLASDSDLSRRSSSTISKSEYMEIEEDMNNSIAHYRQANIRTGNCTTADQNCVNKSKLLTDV

Chain of mKv1.3 channel (mouse) (P16390 whole entry): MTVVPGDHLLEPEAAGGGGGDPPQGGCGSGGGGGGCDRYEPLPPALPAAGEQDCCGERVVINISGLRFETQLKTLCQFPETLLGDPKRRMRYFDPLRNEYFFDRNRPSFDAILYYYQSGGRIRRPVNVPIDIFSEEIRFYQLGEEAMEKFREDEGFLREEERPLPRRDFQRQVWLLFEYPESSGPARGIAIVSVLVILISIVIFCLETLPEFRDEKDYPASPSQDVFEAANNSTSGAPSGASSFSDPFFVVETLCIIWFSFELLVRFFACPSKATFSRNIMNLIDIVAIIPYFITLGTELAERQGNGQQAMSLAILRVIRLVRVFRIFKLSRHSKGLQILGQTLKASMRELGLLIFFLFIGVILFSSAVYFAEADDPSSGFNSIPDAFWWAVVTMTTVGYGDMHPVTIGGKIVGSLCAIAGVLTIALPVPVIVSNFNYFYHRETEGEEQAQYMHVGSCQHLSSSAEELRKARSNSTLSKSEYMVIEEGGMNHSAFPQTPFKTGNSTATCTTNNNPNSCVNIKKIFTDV
Chain of ShK (P29187 whole entry): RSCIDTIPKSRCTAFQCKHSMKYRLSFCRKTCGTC
Chain of ShK-K-amide (P29187 whole entry): as above

“ShK (from UniProt P29187 1-35) (peptide)”: the IC50 of current block, whole-cell patch-clamp in assay [1] came out at 0.009 nM; in assay [2], 0.023 nM. In turn, “ShK-K-amide (from UniProt P29187 1-35) (peptide)” gave an IC50 of current block, whole-cell patch-clamp in assay [1] of 0.026 nM. As to “ShK-amide (from UniProt P29187 1-35) (peptide)”, the IC50 of current block, whole-cell patch-clamp in assay [1] came to 0.035 nM; in assay [2], 0.037 nM.
